# Like-named read-outs stand apart in the source and are kept apart here.
# T1: IL17E
# T1 construct: also called IL-25
# T1 chain: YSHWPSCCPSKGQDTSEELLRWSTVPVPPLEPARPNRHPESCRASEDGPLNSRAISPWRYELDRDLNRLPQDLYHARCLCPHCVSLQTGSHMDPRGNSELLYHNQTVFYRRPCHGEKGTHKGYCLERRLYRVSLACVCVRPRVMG
# T2: IL-17F (UniProt Q96PD4 31-163, limits assumed)
# T2 sequence (looked up): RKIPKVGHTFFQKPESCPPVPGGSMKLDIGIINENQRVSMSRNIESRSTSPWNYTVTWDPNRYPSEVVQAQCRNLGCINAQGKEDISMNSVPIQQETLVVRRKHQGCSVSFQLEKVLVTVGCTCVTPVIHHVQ
# T3: IL-17C (UniProt Q9P0M4 19-197, limits assumed)
# T3 sequence (looked up): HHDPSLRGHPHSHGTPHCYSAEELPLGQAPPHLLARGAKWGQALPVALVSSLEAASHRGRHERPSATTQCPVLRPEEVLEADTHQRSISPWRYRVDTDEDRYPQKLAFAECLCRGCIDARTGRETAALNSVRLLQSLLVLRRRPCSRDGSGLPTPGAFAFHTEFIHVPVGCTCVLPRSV
# T4: murine IL-17A (murine, UniProt Q62386 26-158, limits assumed)
# T4 sequence (looked up): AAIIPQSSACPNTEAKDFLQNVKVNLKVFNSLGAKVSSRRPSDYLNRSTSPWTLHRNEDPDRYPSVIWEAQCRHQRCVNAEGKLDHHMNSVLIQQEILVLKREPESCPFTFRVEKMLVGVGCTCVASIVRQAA
# How the values were obtained:
# [1] = biological target: T5, recombinant human IL-17A (human, UniProt Q16552 24-155); test: SPR (BIAcore T200), IL-17A coupled to CM5 chip, single-cycle kinetics
# T5 construct: Bought recombinant protein (Peprotech AF-200-17); also called Peprotech AF-200-17
# [2] = biological target: T5, recombinant human IL-17A; test: BIAcore single-cycle kinetics on IL-17A (n=2 per legend)
# [3] = biological target: T5, recombinant human IL-17A; test: competition ELISA, IL-17A binding to coated IL-17RA-Fc
# [4] = biological target: T5, recombinant human IL-17A; test: BIAcore single-cycle kinetics, ligand Il-17, 1:1 binding fit, 25 C (n=1 per legend)
# [5] = biological target: T5, recombinant human IL-17A; test: cell-based or functional assay
# [6] = biological target: T5, recombinant human IL-17A; test: BIAcore single-cycle kinetics on IL-17A (n=2 per legend); remark: listed apart in the source
# [7] = biological target: T5, recombinant human IL-17A; test: BIAcore single-cycle kinetics, ligand Il-17, 1:1 binding fit, 25 C (n=1 per legend); remark: listed apart in the source
# [8] = biological target: T5, recombinant human IL-17A; test: cell-based or functional assay; remark: listed apart in the source
# [9] = biological target: T1, IL17E; test: specificity ELISA on coated antigen, VH concentration not given
# [10] = biological target: T2, IL-17F; test: as above
# [11] = biological target: T3, IL-17C; test: as above
# [12] = biological target: T5, recombinant human IL-17A; test: SPR (BIAcore T200), IL-17A coupled to CM5 chip, single-cycle kinetics; remark: listed apart in the source
# [13] = biological target: T5, recombinant human IL-17A; test: competition ELISA, IL-17A binding to coated IL-17RA-Fc (FIG. 9B); FIG. 9B
# [14] = biological target: T5, recombinant human IL-17A; test: SPR (BIAcore T200), IL-17A coupled to CM5 chip, single-cycle kinetics; remark: listed apart in the source
# [15] = biological target: T5, recombinant human IL-17A; test: competition ELISA, IL-17A binding to coated IL-17RA-Fc; remark: listed apart in the source
# [16] = biological target: T5, recombinant human IL-17A; test: cell-based or functional assay; remark: listed apart in the source
# [17] = biological target: T5, recombinant human IL-17A; test: cell-based or functional assay; remark: listed apart in the source
# [18] = biological target: T5, recombinant human IL-17A; test: competition ELISA, IL-17A binding to coated IL-17RA-Fc; FIG. 9A
# [19] = biological target: T5, recombinant human IL-17A; test: SPR (BIAcore)
# [20] = biological target: T5, recombinant human IL-17A; test: VH screening as in examples 7 and 8
# [21] = biological target: T5, recombinant human IL-17A; test: BIAcore single-cycle kinetics on immobilised IL-17A, 1:1 binding fit
# [22] = biological target: T4, murine IL-17A; test: specificity ELISA on coated antigen, VH concentration not given
# [23] = biological target: T6, recombinant IL-17RA-Fc (UniProt Q96F46 33-320); test: as above
# T6 construct: Bought reagent; also called R & D systems cat #177-IR-100; receptor; not shown: Fc part of the bought fusion, not described
# [24] = biological target: T2, IL-17F; test: as above; remark: listed apart in the source
# [25] = biological target: T3, IL-17C; test: as above; remark: listed apart in the source
# [26] = biological target: T5, recombinant human IL-17A; test: cell-based or functional assay; remark: listed apart in the source
# [27] = biological target: T5, recombinant human IL-17A; test: BIAcore single-cycle kinetics on IL-17A (n=2 per legend); remark: listed apart in the source
# [28] = biological target: T5, recombinant human IL-17A; test: BIAcore single-cycle kinetics, ligand Il-17, 1:1 binding fit, 25 C (n=1 per legend); remark: listed apart in the source
# [29] = biological target: T5, recombinant human IL-17A; test: BIAcore single-cycle kinetics on IL-17A (n=2 per legend); remark: listed apart in the source
# [30] = biological target: T5, recombinant human IL-17A; test: BIAcore single-cycle kinetics, ligand Il-17, 1:1 binding fit, 25 C (n=1 per legend); remark: listed apart in the source
# T5 sequence (Q16552 24-155): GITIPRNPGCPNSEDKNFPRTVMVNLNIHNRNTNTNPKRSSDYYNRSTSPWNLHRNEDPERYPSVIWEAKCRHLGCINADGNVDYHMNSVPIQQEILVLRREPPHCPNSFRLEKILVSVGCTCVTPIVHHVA
binder,measurement,setting,value
"VH 3.2.1 (clone 3.2 expressed from phagemid vector: with linker residues and His tag) (VHH, Human single VH domain) VHH: QVQLVQSGAEVKKPGASVKVSCKASGYNADAYYINWVRQAPGQGLEWMGSIKPNTGATKYAQKFQGRVTITRDTSISTAYMELSRLRSDDTAVYYCASLDRDTWYPHSYAGWFDAWGQGTLVTVSS",Kd,[1],0.23 nM
same,koff,[1],0.000252 s⁻¹
same,kon,[1],1.1e+06 M⁻¹ s⁻¹
same,Kd,[2],0.212 nM
same,IC50,[3],2.5 nM
same,Kd,[4],0.15 nM
same,koff,[4],0.000349 s⁻¹
same,kon,[4],2.28e+06 M⁻¹ s⁻¹
same,"Cell assay IC50 (nM), IL-17A-induced IL6 release from HT1080",[5],2.5 nM
"3.2-2(G4S)-1.2 (VHH, also called Biparatopic: 3.2-2(G4S)-1.2) VH-linker-VH: QVQLVQSGAEVKKPGASVKVSCKASGYNADAYYINWVRQAPGQGLEWMGSIKPNTGATKYAQKFQGRVTITRDTSISTAYMELSRLRSDDTAVYYCASLDRDTWYPHSYAGWFDAWGQGTLVTVSSAAGGGGSGGGGSEVQLVESGGGLVQPGGSLRLSCAASGFTFSSYSMYWVRQAPGKGLEWVAEIKQDGSVQYYVSDVKGRFTISRDNAKNSLYLQMNSLRAEDTAVYYCAKGEILPLYFDYWGQGTLVTVSS",Kd,[6],0.045 nM
same,Kd,[7],0.0429 nM
same,koff,[7],4.75e-05 s⁻¹
same,kon,[7],1.1e+06 M⁻¹ s⁻¹
same,EC50,[8],1070 pM
"VH 1.1.1 (clone 1.1 expressed from phagemid vector: with linker residues and His tag) (VHH, Human single VH domain; also called Family 1 (clone 1.1)) VHH: EVQLVESGGGLVQPGGSLRLSCAASGFTFSSYSMYWVRQAPGKGLEWVANIKQDGSEKYYVDSVKGRFTISRDNAKNSLFLQMNSLRAEDTAVYYCAKGEILPLHFDYWGQGTLVTVSS",binding result,[9],no binding
same,binding result,[10],no binding
same,binding result,[11],no binding
same,Kd,[12],5 nM
same,koff,[12],0.00149 s⁻¹
same,kon,[12],296000 M⁻¹ s⁻¹
same,IC50,[13],29 nM
same,Kd,[14],5 nM
same,koff,[14],0.00149 s⁻¹
same,kon,[14],296000 M⁻¹ s⁻¹
same,IC50,[15],53 nM
same,"Cell assay IC50 (nM), IL-17A-induced IL6 release from HT1080",[16],13 nM
same,"Cell assay IC50 (nM), IL-17A-induced IL6 release from HT1080",[17],13 nM
"VH 1.6.1 (clone 1.6 expressed from phagemid vector: with linker residues and His tag) (VHH, Human single VH domain) VHH: EVQLVESGGGLVQPGGSLRLSCAASGFTFSSYSMYWVRQAPGKGLEWVAEIKQDGSEQYYVDSVKGRFTISRDNAKNSLYLQMNSLRAEDTAVYYCAKGEILPLYFDYWGQGTLVTVSS",IC50,[18],5 nM
same,Kd,[19],0.63 nM
same,binding result,[9],no binding
same,binding result,[10],no binding
same,binding result,[11],no binding
same,Kd,[14],0.627 nM
same,koff,[14],0.000482 s⁻¹
same,kon,[14],770000 M⁻¹ s⁻¹
same,"Cell assay IC50 (nM), IL-17A-induced IL6 release from HT1080",[17],1.3 nM
same,fold improved affinity over clone 1.1,[20],≤ 10 fold
"VH 1.10.1 (clone 1.10 expressed from phagemid vector: with linker residues and His tag) (VHH, Human single VH domain) VHH: EVQLVESGGGLVQPGGSLRLSCAASGFTFSSYRMYWVRQAPGKGLEWVASIEQDGSEEYYVDSVKGRFTISRDNAKKSLFLQMNSLRAEDTAVYYCAKGEILPLYFDYWGQGTLVTVSS",IC50,[18],4 nM
same,Kd,[19],1 nM
same,binding result,[9],no binding
same,koff,[21],0.000755 s⁻¹
same,kon,[21],700000 M⁻¹ s⁻¹
same,Kd,[14],1.46 nM
same,koff,[14],0.000966 s⁻¹
same,kon,[14],664000 M⁻¹ s⁻¹
same,binding result,[22],binds
same,binding result,[23],no binding
same,binding result,[24],no binding
same,binding result,[25],no binding
same,"Cell assay IC50 (nM), IL-17A-induced IL6 release from HT1080",[17],1.9 nM
same,fold improved affinity over clone 1.1,[20],≤ 10 fold
Clone 1.2 (VHH) VHH: EVQLVESGGGLVQPGGSLRLSCAASGFTFSSYSMYWVRQAPGKGLEWVAEIKQDGSVQYYVSDVKGRFTISRDNAKNSLYLQMNSLRAEDTAVYYCAKGEILPLYFDYWGQGTLVTVSS,Kd,[14],0.555 nM
same,koff,[14],0.000485 s⁻¹
same,kon,[14],874000 M⁻¹ s⁻¹
same,EC50 (read off the curve),[26],~800 pM
same,"Cell assay IC50 (nM), IL-17A-induced IL6 release from HT1080",[17],0.4 nM
same,Kd,[27],0.57 nM
same,Kd,[28],0.675 nM
same,koff,[28],2.26e-05 s⁻¹
same,kon,[28],33500 M⁻¹ s⁻¹
"3.2-6(G4S)-1.2 (VHH, also called Biparatopic 3.2-6(G4S)-1.2) VH-linker-VH: QVQLVQSGAEVKKPGASVKVSCKASGYNADAYYINWVRQAPGQGLEWMGSIKPNTGATKYAQKFQGRVTITRDTSISTAYMELSRLRSDDTAVYYCASLDRDTWYPHSYAGWFDAWGQGTLVTVSSAAGGGGSGGGGSGGGGSGGGGSGGGGSGGGGSEVQLVESGGGLVQPGGSLRLSCAASGFTFSSYSMYWVRQAPGKGLEWVAEIKQDGSVQYYVSDVKGRFTISRDNAKNSLYLQMNSLRAEDTAVYYCAKGEILPLYFDYWGQGTLVTVSS",Kd,[29],0.02 nM
same,Kd,[30],0.0198 nM
same,koff,[30],3.02e-05 s⁻¹
same,kon,[30],1.52e+06 M⁻¹ s⁻¹
same,EC50,[8],923 pM
